We go through 30 molecules from US20110118131A1 (published 2011).

The chains are these.
B1: XPA23 light chain A91R (Fab, V domains shown)
VH: EVQLLESGGGLVQPGGSLRLSCAASGFTFSKYFMFWVRQAPGKGLEWVSVISPSGGMTRYADSVKGRFTISRDNSKNTLYLQMNSLRAEDTAVYYCARVGYGGNSDYWGQGTLVTVSS
VL: DIQMTQSPSSVSASVGDRLTIICRASQDINRWLAWYQQTPGNAPKLLIHSATSLQSGVPSRFSGSGSGTDFTLTINSLQPEDFATYYCQQRDSFPLTFGGGTKVEIK
B2: XPA23 light chain D28A (Fab, V domains shown)
VH: B1 VH
VL: B1 VL with D28A, R91A
B3: XPA23 light chain A91S (Fab, V domains shown)
VH: B1 VH
VL: B1 VL with R91S
B4: XPA23 light chain D92E (Fab, V domains shown)
VH: B1 VH
VL: B1 VL with R91A, D92E
B5: XPA23 light chain D92Y (Fab, V domains shown)
VH: B1 VH
VL: B1 VL with R91A, D92Y
B6: XPA23 light chain D28H (Fab, V domains shown)
VH: B1 VH
VL: B1 VL with D28H, R91A
B7: XPA23 light chain D28T (Fab, V domains shown)
VH: B1 VH
VL: B1 VL with D28T, R91A
B8: XPA23 light chain D28W (Fab, V domains shown)
VH: B1 VH
VL: B1 VL with D28W, R91A
B9: XPA23 light chain D92W (Fab, V domains shown)
VH: B1 VH
VL: B1 VL with R91A, D92W
B10: XPA23 light chain D28F (Fab, V domains shown)
VH: B1 VH
VL: B1 VL with D28F, R91A
B11: XPA23 light chain D28P (Fab, V domains shown)
VH: B1 VH
VL: B1 VL with D28P, R91A
B12: XPA23 light chain D92N (Fab, V domains shown)
VH: B1 VH
VL: B1 VL with R91A, D92N
B13: XPA23 light chain D28E (Fab, V domains shown)
VH: B1 VH
VL: B1 VL with D28E, R91A
B14: XPA23 light chain D28N (Fab, V domains shown)
VH: B1 VH
VL: B1 VL with D28N, R91A
B15: XPA23 light chain A91Y (Fab, V domains shown)
VH: B1 VH
VL: B1 VL with R91Y
B16: XPA23 light chain D92F (Fab, V domains shown)
VH: B1 VH
VL: B1 VL with R91A, D92F
B17: XPA23 light chain D28G (Fab, V domains shown)
VH: B1 VH
VL: B1 VL with D28G, R91A
B18: XPA23 light chain A91W (Fab, V domains shown)
VH: B1 VH
VL: B1 VL with R91W
B19: XPA23 light chain D28L (Fab, V domains shown)
VH: B1 VH
VL: B1 VL with D28L, R91A
B20: XPA23 light chain D28K (Fab, V domains shown)
VH: B1 VH
VL: B1 VL with D28K, R91A
B21: XPA23 light chain D28V (Fab, V domains shown)
VH: B1 VH
VL: B1 VL with D28V, R91A
B22: XPA23 light chain D28R (Fab, V domains shown)
VH: B1 VH
VL: B1 VL with D28R, R91A
B23: XPA23 light chain D92H (Fab, V domains shown)
VH: B1 VH
VL: B1 VL with R91A, D92H
B24: XPA23 light chain D28S (Fab, V domains shown)
VH: B1 VH
VL: B1 VL with D28S, R91A
B25: XPA23 light chain D92Q (Fab, V domains shown)
VH: B1 VH
VL: B1 VL with R91A, D92Q
B26: XPA23 light chain D92R (Fab, V domains shown)
VH: B1 VH
VL: B1 VL with R91A, D92R
B27: XPA23 light chain D92K (Fab, V domains shown)
VH: B1 VH
VL: B1 VL with R91A, D92K
B28: XPA23 light chain D28Y (Fab, V domains shown)
VH: B1 VH
VL: B1 VL with D28Y, R91A
B29: XPA23 light chain D92S (Fab, V domains shown)
VH: B1 VH
VL: B1 VL with R91A, D92S
B30: XPA23 light chain D28I (Fab, V domains shown)
VH: B1 VH
VL: B1 VL with D28I, R91A

Where a chain is given by its changes, count along the chain named. In names and notes the source's numbering stands.

For this experiment, the target named is T1, IL-1β (UniProt P01584 117-269).
T1 construct: Antigen immobilised on the Biacore chip
The experiment can be described thus: Biacore, periplasmic extract. Background: In SPR one partner is held on a chip, and binding of the other changes the refractive index at the surface.
Consider B1, for which the binding result is “no binding”.

Turning to B2, the “fold difference in affinity vs original” value worked out at 0.88 fold. Same read-out and setting: the result for B3 reads 0.9 fold; that for B4, 0.99 fold. With B5, the binding result is recorded as “no binding”. As for B6, the “fold difference in affinity vs original” value came out at 1.23 fold. Same read-out and setting: then B7, with 1.19 fold.

Take B8: the “fold difference in affinity vs original” value was 3.81 fold. The same measure, in the same setting: the result for B9 reads 0.12 fold; that for B10, 1.43 fold. Same read-out and setting: the result for B11 reads 1.17 fold; that for B12, 0.67 fold. On the same count and under the same terms, then B13, with 0.74 fold. As to B14, the “fold difference in affinity vs original” value amounted to 1 fold.

Take B15: the binding result is given as “no binding”.

Take B16: the “fold difference in affinity vs original” value was 0.26 fold.

For the molecule B17, the “fold difference in affinity vs original” value came out at 1.21 fold. Consider B18, for which the binding result was “no binding”. For B19, the “fold difference in affinity vs original” value was found to be 9.64 fold. For the molecule B20, the “fold difference in affinity vs original” value came out at 0.82 fold.

Turning to B21, the “fold difference in affinity vs original” value amounted to 0.85 fold. The same measure, in the same setting: then B22, with 0.94 fold; and B23, with 0.63 fold. Still for that read-out and setting: the result for B24 reads 5.25 fold; that for B25, 0.56 fold. Consider B26, for which the binding result was “no binding”. As for B27, the “fold difference in affinity vs original” value is 0.23 fold. Same read-out and setting: then B28, with 1.45 fold. As to B29, the “fold difference in affinity vs original” value is 6.59 fold. As for B30, the binding result is given as “no binding”.
